Target: Gin4p kinase domain (codons 1-294), DBD fusion (S. cerevisiae) (UniProt Q12263)
Test: two-hybrid

Sequence of UniProt Q12263 (Q12263 1-294): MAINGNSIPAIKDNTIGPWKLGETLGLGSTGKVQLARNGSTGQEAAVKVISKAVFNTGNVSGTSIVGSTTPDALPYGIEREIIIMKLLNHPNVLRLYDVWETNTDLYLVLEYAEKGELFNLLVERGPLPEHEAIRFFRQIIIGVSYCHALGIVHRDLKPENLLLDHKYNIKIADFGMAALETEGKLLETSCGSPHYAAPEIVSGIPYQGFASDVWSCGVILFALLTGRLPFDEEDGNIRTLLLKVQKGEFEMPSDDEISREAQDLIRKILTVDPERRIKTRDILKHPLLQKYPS

COOH-terminal region of Cdc3p (the 101 COOH-terminal amino acids), AD fusion (domain or fragment)
units of β-galactosidase activity (units of β-galactosidase activity): 727

Reference: article PMC2148136
